Results reported in US20240199756A1 (CYTOVIA THERAPEUTICS, published 2024).

Tests used:
[1] = biological target: T1, human CD38 expressed on multiple myeloma cells (KMS11, MM1.S) (human, UniProt P28907 1-300); assay: flow cytometry on KMS11 wt cells
T1 construct: whole, on cells; Naturally expressed on KMS11 and MM1.S cell lines; a CD38 knock out MM.1S line served as negative control
T1 sequence (looked up): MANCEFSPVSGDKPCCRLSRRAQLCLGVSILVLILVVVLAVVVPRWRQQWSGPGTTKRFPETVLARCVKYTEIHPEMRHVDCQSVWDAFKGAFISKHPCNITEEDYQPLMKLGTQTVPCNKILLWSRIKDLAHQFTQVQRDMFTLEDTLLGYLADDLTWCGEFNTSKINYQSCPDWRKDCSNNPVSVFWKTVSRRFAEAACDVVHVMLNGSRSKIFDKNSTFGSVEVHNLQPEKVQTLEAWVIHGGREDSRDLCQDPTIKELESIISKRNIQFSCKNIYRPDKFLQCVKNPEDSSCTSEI

[2] = biological target: T1, human CD38 expressed on multiple …; assay: flow cytometry on MM.1S wt cells
human CD38 protein = biological target: T2, human CD38 protein (human, UniProt P28907 43-300); assay: ELISA, plate coated with human CD38 protein, absorbance at 650 nm
T2 sequence (looked up): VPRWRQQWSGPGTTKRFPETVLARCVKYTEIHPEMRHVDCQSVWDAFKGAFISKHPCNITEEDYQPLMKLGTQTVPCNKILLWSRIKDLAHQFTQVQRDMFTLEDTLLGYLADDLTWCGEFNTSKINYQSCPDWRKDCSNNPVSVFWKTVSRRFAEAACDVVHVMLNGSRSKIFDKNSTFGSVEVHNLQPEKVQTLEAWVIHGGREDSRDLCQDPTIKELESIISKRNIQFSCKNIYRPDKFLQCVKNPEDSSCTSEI
Experimental: Binding of the humanized antibody to human CD38 was tested. The ELISA plate was coated with 0.1 mg/well of human CD38 protein. 1t antibody (humanized anti-aNKp46 antibody or humanized anti-CD38 antibody) was added at 0.1 mg/well. Secondary antibody was diluted 1:7500. After addition of Streptavidin-HRP and TMB substrate the optical absorbance was measured at 650 nm.

Binder	EC50 (read off the curve) [1] [µg/mL]	EC50 (read off the curve) [2] [µg/mL]	binding result (human CD38 protein)
NKE2 with wild type (WT) Fc (bispecific antibody, human IgG1, kappa, Tetravalent IgG1-like tandem-Fab molecule: anti-CD38 Fab, linker, humanized 09 anti-NKp46 Fab, hinge, IgG1 Fc; also called NKE2 WT; NKE2 WT-Fc) heavy: not shown light 1: DIVMTQSPATLSLSPGERATLSCRASQSISDYLHWFQQKPHESPRLLIKYASQSISGIPARFSGSGSGSDFTLTISSLEPEDFAVYYCQNGHSFPLTFGPGTKVDIKRTVAAPAVFIFPPSDEQLKSGTASVVCLLKNFYPREAKVQWKVDNALQSGNSQESVTEQDSKDSTYSLSSTLTLSKADYEKHKVYACEVTHQGLSSPVTKSFNRGEC light 2: DIQMTQSPSSLSASVGDRVTITCRASENIYSFLAWYQQKPGKAPKLLIYNTKTLTEGVPSRFSGSGSGTDFTLTISSLQPEDFATYYCQHHYGIPLTFGGGTKVEIKRTVAAPSVFIFPPSDEQLKSGTASVVCLLNNFYPREAKVQWKVDNALQSGNSQESVTEQDSKDSTYSLSSTLTLSKADYEKHKVYACEVTHQGLSSPVTKSFNRGEC	~0.2	~0.3	
NKE2 with mutant null Fc (bispecific antibody, human IgG1, kappa, L234A L235A, As NKE2 WT but with IgG1 L234A/L235A Fc; also called NKE2 Mut Fc (Fc silent); NKE2 MUT) heavy: not shown light 1: DIVMTQSPATLSLSPGERATLSCRASQSISDYLHWFQQKPHESPRLLIKYASQSISGIPARFSGSGSGSDFTLTISSLEPEDFAVYYCQNGHSFPLTFGPGTKVDIKRTVAAPAVFIFPPSDEQLKSGTASVVCLLKNFYPREAKVQWKVDNALQSGNSQESVTEQDSKDSTYSLSSTLTLSKADYEKHKVYACEVTHQGLSSPVTKSFNRGEC light 2: DIQMTQSPSSLSASVGDRVTITCRASENIYSFLAWYQQKPGKAPKLLIYNTKTLTEGVPSRFSGSGSGTDFTLTISSLQPEDFATYYCQHHYGIPLTFGGGTKVEIKRTVAAPSVFIFPPSDEQLKSGTASVVCLLNNFYPREAKVQWKVDNALQSGNSQESVTEQDSKDSTYSLSSTLTLSKADYEKHKVYACEVTHQGLSSPVTKSFNRGEC	~0.2	~0.3	
humanized anti-CD38 antibody (antibody, V domains shown, also called CD38-IgG1 L234A, L235A; CD38-IgG1 wildtype) VH: QVQLVQSGAEVKKPGASVKVSCKASGYTFTSYWMQWVRQAPGQGLEWMGAIYPGDGDTRYTQKFKGRVTMTRDTSTSTVYMELSSLRSEDTAVYYCARERTTGAPRYFDVWGQGTLVTVSS VL: DIQMTQSPSSLSASVGDRVTITCRASENIYSFLAWYQQKPGKAPKLLIYNTKTLTEGVPSRFSGSGSGTDFTLTISSLQPEDFATYYCQHHYGIPLTFGGGTKVEIK			binds
